According to patent US20100119450A1 (published 2010):
Blank lines part the entries; values can stand above or below the binder they belong to.

Experiments:
[1] = target: T1, amyloid-β peptide Aβ1-40 (wild-type) (UniProt P05067 672-711); test: SPR (BIACORE X), LRP-1 cluster immobilized on CM5 chip, Aβ in solution; apparent Kd from koff/kon
T1 construct: domain: Aβ1-40; Soluble monomeric synthetic peptide; used 125I-labeled as tracer in capillary and in vivo studies; also called Aβ40; wild-type Aβ1-40
Experimental: (§1) Incubation conditions as described under Materials and Methods. […] Apparent affinity constants K_{d(app)} were deduced from the ratios of k_{off(app)}/kₒₙ₍ₐₚₚ₎ as described under Materials and Methods. […] K_{d(app)} (mean±SD) values were determined from 6 to 9 different concentrations of Aβ and 3 to 5 independent measurements at each concentration.
(§2) (as described in Westein et al., 2002). […] Ligand solution was replaced with buffer to initiate dissociation. The data were analyzed to calculate apparent association rate constants kₒₙ₍ₐₚₚ₎ and apparent dissociation rate constants k_{off(app)} using a single-site binding model (as described in Westein et al., 2002). Apparent affinity constants K_{d(app)} were inferred from the ratio k_{off(app)}/kₒₙ₍ₐₚₚ₎. Data are based on three to five measurements using six to nine different concentrations for each measurement. Data are presented as the mean±SEM. Analysis was performed using BIACORE X biosensor system (Uppsala, Sweden) and BIA evaluation 3.0 software (Biocore, Sweden).

[2] = target: T2, amyloid-β peptide Aβ1-42 (wild-type) (UniProt P05067 672-713); test: as above
T2 construct: domain: Aβ1-42; Synthetic peptide; also called Aβ42
Experimental: as §1, §2

Kd [1]: 0.57 nM | Kd [2]: 3 nM
B1: recombinant LRP-1 fragment encompassing cluster II (receptor, UniProt Q07954 805-1184, looked up)
chain: NKCRVNNGGCSSLCLATPGSRQCACAEDQVLDADGVTCLANPSYVPPPQCQPGEFACANSRCIQERWKCDGDNDCLDNSDEAPALCHQHTCPSDRFKCENNRCIPNRWLCDGDNDCGNSEDESNATCSARTCPPNQFSCASGRCIPISWTCDLDDDCGDRSDESASCAYPTCFPLTQFTCNNGRCININWRCDNDNDCGDNSDEAGCSHSCSSTQFKCNSGRCIPEHWTCDGDNDCGDYSDETHANCTNQATRPPGGCHTDEFQCRLDGLCIPLRWRCDGDTDCMDSSDEKSCEGVTHVCDPSVKFGCKDSARCISKAWVCDGDNDCEDNSDEENCESLACRPPSHPCANNTSVCLPPDKLCDGNDDCGDGSDEGELCDQ
notes: domain: cluster II; Produced in stably transfected baby hamster kidney cells as described in Westein et al., 2002; immobilized on CM5 chip; also called LRP-1 cluster II; LRP-1 II

Kd [1]: 1.24 nM | Kd [2]: 10.1 nM
B2: recombinant LRP-1 fragment encompassing cluster IV (receptor)
chain: not shown
notes: domain: cluster IV; Produced in stably transfected baby hamster kidney cells as described in Westein et al., 2002; immobilized on CM5 chip; also called LRP-1 cluster IV; LRP-1 IV
